{
  "source": "paper PMC10213043",
  "about": "“Different viral effectors suppress hormone-mediated antiviral immunity of rice coordinated by OsNPR1” (Nature Communications, 2023)",
  "biological_target": "the molecule itself",
  "assay": "pull-down; purified proteins, 5 µg GST-OsNPR1 with 5 µg MBP-HIS-OsNPR1 or 5 µg MBP-HIS-OsCUL3a, plus 1 or 10 µg MBP-HIS-P2 (or 10 µg MBP-HIS); held on glutathione sepharose beads, 4 °C, 2 h, washed with 1x PBS",
  "data": [
    {"protein": "GST-OsNPR1 (natural protein, also called second copy in the self-association pull-down: MBP-HIS-OsNPR1; MBP-OsNPR1; source: E. coli Rosetta (DE3), purified) MEPPTSHVTNAFSDSDSASVEEGGADADADVEALRRLSDNLAAAFRSPEDFAFLADARIAVPGGGGGGGDLLVHRCVLSARSPFLRGVFARRAAAAAGGGGEDGGERLELRELLGGGGEEVEVGYEALRLVLDYLYSGRVGDLPKAACLCVDEDCAHVGCHPAVAFMAQVLFAASTFQVAELTNLFQRRLLDVLDKVEVDNLLLILSVANLCNKSCMKLLERCLDMVVRSNLDMITLEKSLPPDVIKQIIDARLSLGLISPENKGFPNKHVRRIHRALDSDDVELVRMLLTEGQTNLDDAFALHYAVEHCDSKITTELLDLALADVNHRNPRGYTVLHIAARRREPKIIVSLLTKGARPADVTFDGRKAVQISKRLTKQGDYFGVTEEGKPSPKDRLCIEILEQAERRDPQLGEASVSLAMAGESLRGRLLYLENRVALARIMFPMEARVAMDIAQVDGTLEFNLGSGANPPPERQRTTVDLNESPFIMKEEHLARMTALSKTVELGKRFFPRCSNVLDKIMDDETDPVSLGRDTSAEKRKRFHDLQDVLQKAFHEDKEENDRSGLSSSSSSTSIGAIRPRR", "values": [
      {"measurement": "binding result", "result": "binds"}
    ]}
  ]
}
